Reference: IntAct's records for PubMed 18560563

B1: Bifunctional UDP-N-acetylglucosamine 2-epimerase/N-acetylmannosamine kinase (Homo sapiens), Q9Y223 (parent)
chain: MEKNGNNRKLRVCVATCNRADYSKLAPIMFGIKTEPEFFELDVVVLGSHLIDDYGNTYRMIEQDDFDINTRLHTIVRGEDEAAMVESVGLALVKLPDVLNRLKPDIMIVHGDRFDALALATSAALMNIRILHIEGGEVSGTIDDSIRHAITKLAHYHVCCTRSAEQHLISMCEDHDRILLAGCPSYDKLLSAKNKDYMSIIRMWLGDDVKSKDYIVALQHPVTTDIKHSIKMFELTLDALISFNKRTLVLFPNIDAGSKEMVRVMRKKGIEHHPNFRAVKHVPFDQFIQLVAHAGCMIGNSSCGVREVGAFGTPVINLGTRQIGRETGENVLHVRDADTQDKILQALHLQFGKQYPCSKIYGDGNAVPRILKFLKSIDLQEPLQKKFCFPPVKENISQDIDHILETLSALAVDLGGTNLRVAIVSMKGEIVKKYTQFNPKTYEERINLILQMCVEAAAEAVKLNCRILGVGISTGGRVNPREGIVLHSTKLIQEWNSVDLRTPLSDTLHLPVWVDNDGNCAALAERKFGQGKGLENFVTLITGTGIGGGIIHQHELIHGSSFCAAELGHLVVSLDGPDCSCGSHGCIEAYASGMALQREAKKLHDEDLLLVEGMSVPKDEAVGALHLIQAAKLGNAKAQSILRTAGTALGLGVVNILHTMNPSLVILSGVLASHYIHIVKDVIRQQALSSVQDVDVVVSDLVDPALLGAASMVLDYTTRRIY

Variants of: B1
Settings: with actn1_human ACTN1, P12814
Chain of actn1_human ACTN1, P12814 (P12814 whole entry): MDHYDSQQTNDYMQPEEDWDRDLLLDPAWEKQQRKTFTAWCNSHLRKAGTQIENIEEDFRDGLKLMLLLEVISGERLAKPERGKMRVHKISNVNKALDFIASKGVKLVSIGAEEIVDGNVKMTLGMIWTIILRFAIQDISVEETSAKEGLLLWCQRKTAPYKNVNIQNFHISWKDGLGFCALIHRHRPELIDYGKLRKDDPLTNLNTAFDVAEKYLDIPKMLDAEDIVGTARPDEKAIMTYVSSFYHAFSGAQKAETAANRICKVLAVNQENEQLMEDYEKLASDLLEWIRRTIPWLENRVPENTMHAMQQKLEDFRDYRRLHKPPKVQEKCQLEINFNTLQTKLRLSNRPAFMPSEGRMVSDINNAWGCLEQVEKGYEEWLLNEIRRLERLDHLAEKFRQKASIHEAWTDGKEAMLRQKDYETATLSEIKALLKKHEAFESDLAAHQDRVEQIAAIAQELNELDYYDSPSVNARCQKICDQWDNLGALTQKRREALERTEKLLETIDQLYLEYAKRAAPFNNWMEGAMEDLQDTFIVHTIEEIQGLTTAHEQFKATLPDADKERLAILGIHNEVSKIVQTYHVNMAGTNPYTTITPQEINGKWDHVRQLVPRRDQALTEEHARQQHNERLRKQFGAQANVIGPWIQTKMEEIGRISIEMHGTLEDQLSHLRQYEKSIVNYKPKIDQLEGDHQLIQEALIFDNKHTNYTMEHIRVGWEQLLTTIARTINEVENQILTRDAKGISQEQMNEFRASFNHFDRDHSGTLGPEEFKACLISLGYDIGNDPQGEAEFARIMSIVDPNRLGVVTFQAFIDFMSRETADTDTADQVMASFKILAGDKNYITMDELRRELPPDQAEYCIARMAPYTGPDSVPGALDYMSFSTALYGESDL

Variant	effect of a mutation on the interaction
M712T	with no effect
